Measured values taken from patent US20120295802A1 (published 2012).
Where a chain is given by its changes, count along the chain named. Names and notes keep the numbering of the source. Square brackets hold non-standard residues; d marks the D form. Ends that are not written are not given here. * marks the point of attachment. Biotin = O=C1N[C@H]2[C@H](CS[C@H]2CCCCC(=O)*)N1; pS = N[C@@H](COP(=O)(O)O)C(=O)O

B1: optimal tandem BRCT domain-interacting phosphopeptide YDIpSQVFPF (peptide)
peptide: Biotin-YDI[pS]QVFPF
notes: Found by oriented peptide library screening; Conjugated to streptavidin-coated beads; also called phosphorylated biotinylated peptide
B2: myc-tagged BRCA1 tandem BRCT domain construct (residues 1313-1863) M1775R (other, not shown: small tags and cut ends)
chain: QDPFLIGSSKQMRHQSESQGVGLSDKELVSDDEERGTGLEENNQEEQSMDSNLGEAASGCESETSVSEDCSGLSSQSDILTTQQRDTMQHNLIKLQQEMAELEAVLEQHGSQPSNSYPSIISDSSALEDLRNPEQSTSEKAVLTSQKSSEYPISQNPEGLSADKFEVSADSSTSKNKEPGVERSSPSKCPSLDDRWYMHSCSGSLQNRNYPSQEELIKVVDVEEQQLEESGPHDLTETSYLPRQDLEGTPYLESGISLFSDDPESDPSEDRAPESARVGNIPSSTSALKVPQLKVAESAQSPAAAHTTDTAGYNAMEESVSREKPELTASTERVNKRMSMVVSGLTPEEFMLVYKFARKHHITLTNLITEETTHVVMKTDAEFVCERTLKYFLGIAGGKWVVSYFWVTQSIKERKMLNEHDFEVRGDVVNGRNHQGPKRARESQDRKIFRGLEICCYGPFTNRPTDQLEWMVQLCGASVVKELSSFTLGTGVHPIVVVQPDAWTEDNGFHAIGQMCEAPVVTREWVLDSVALYQCQELDTYLIPQIPHSHY
notes: also called M1775R cancer-associated mutant
B3: myc-tagged BRCA1 tandem BRCT domain construct (residues 1313-1863) P1749R (other, not shown: small tags and cut ends)
chain: B2 chain with P437R, R463M

Columns and labels:
[1] = target: T1, myc-tagged BRCA1 tandem BRCT domain construct (residues 1313-1863) mutated at Lys1702 alone (human, UniProt P38398 1313-1863); experiment: pull-down of in vitro translated 35S-labelled protein on bead-immobilized peptide
T1 construct: also called Lys1702 mutant; K1702M
Description: (§1) FIG. 3A is a schematic representation of protein-peptide contacts between a BRCA1 tandem BRCT domain and the BACH1 phosphopeptide. Hydrogen bonds, Van der Waals interactions and water molecules are denoted by dashed lines, crescents, and circles respectively. In FIG. 3B, the wild-type and mutant myc-tagged BRCA1 tandem BRCT domain constructs containing the indicated mutations were analysed for binding to a bead-immobilized optimal tandem BRCT domain-interacting phosphopeptide, YDIpSQVFPF, or its non-phosphorylated counterpart. […] In FIG. 3C, U2OS cells transfected with wild-type and mutant myc-tagged BRCA 1 tandem BRCT domain constructs were analysed for association with endogenous BACH1.
(§2) An optimal phosphopeptide for binding the BRCA1 BRCTs was determined by oriented peptide library screening as described previously. This peptide was synthesized in both its phosphorylated and non-phosphorylated form with a biotin group at the N-terminus using N-α-FMOC-protected amino acids and standard BOP/HOBt coupling chemistry. These peptides were conjugated to streptavidin coated beads (Sigma-Aldrich). […] The bead-immobilized peptides (10 μL of beads) were added to 10 μL of the in vitro translated [³⁵S]-labeled protein pool in 150 μL binding buffer (50 mM Tris-HCl (pH7.6), 150 mM NaCl, 0.5% NP-40, 1 mM EDTA, 2 mM DTT, 8 μg/mL pepstatin, 8 μg mL⁻¹ aprotinin, 8 μg mL⁻¹ leupeptin, 800 μM Na3VO4, 25 mM NaF).

[2] = target: B3; experiment: as above
Description: as §1, §2

[3] = target: B2; experiment: as above
Description: as §1, §2

[4] = target: T2, myc-tagged BRCA1 tandem BRCT domain construct (from residue 1313) Y1853X (human, UniProt P38398 1313-1852); experiment: as above
T2 construct: Stop at Tyr1853; also called Y1853X (truncates the last 11 residues)
Description: as §1, §2

[5] = target: myc-tagged BRCA1 tandem BRCT domain construct (residues 1313-1863) G1738E (human, UniProt P38398 1313-1863); experiment: as above
Description: as §1, §2

[6] = target: T3, myc-tagged BRCA1 tandem BRCT domain construct (residues 1313-1863) mutated at Ser1655 alone (human, UniProt P38398 1313-1863); experiment: as above
T3 construct: also called Ser1655 mutant; S1655A
Description: as §1, §2

[7] = target: T4, myc-tagged BRCA1 tandem BRCT domain construct (residues 1313-1863) S1655A/K1702M (human, UniProt P38398 1313-1863); experiment: as above
T4 construct: also called K1702M/S1655A
Description: as §1, §2

[8] = target: T5, endogenous BACH1 (full-length) of U2OS cells (Homo sapiens (Human), UniProt Q9BX63 1-1249); experiment: co-immunoprecipitation from transfected U2OS cells (anti-myc IP, anti-BACH1 blot)
T5 construct: Endogenous full-length protein in U2OS cell lysates, detected with a rabbit anti-BACH1 antibody; The phosphorylation state in the lysate was not measured; also called full-length BACH1; wild-type BACH1
T5 sequence: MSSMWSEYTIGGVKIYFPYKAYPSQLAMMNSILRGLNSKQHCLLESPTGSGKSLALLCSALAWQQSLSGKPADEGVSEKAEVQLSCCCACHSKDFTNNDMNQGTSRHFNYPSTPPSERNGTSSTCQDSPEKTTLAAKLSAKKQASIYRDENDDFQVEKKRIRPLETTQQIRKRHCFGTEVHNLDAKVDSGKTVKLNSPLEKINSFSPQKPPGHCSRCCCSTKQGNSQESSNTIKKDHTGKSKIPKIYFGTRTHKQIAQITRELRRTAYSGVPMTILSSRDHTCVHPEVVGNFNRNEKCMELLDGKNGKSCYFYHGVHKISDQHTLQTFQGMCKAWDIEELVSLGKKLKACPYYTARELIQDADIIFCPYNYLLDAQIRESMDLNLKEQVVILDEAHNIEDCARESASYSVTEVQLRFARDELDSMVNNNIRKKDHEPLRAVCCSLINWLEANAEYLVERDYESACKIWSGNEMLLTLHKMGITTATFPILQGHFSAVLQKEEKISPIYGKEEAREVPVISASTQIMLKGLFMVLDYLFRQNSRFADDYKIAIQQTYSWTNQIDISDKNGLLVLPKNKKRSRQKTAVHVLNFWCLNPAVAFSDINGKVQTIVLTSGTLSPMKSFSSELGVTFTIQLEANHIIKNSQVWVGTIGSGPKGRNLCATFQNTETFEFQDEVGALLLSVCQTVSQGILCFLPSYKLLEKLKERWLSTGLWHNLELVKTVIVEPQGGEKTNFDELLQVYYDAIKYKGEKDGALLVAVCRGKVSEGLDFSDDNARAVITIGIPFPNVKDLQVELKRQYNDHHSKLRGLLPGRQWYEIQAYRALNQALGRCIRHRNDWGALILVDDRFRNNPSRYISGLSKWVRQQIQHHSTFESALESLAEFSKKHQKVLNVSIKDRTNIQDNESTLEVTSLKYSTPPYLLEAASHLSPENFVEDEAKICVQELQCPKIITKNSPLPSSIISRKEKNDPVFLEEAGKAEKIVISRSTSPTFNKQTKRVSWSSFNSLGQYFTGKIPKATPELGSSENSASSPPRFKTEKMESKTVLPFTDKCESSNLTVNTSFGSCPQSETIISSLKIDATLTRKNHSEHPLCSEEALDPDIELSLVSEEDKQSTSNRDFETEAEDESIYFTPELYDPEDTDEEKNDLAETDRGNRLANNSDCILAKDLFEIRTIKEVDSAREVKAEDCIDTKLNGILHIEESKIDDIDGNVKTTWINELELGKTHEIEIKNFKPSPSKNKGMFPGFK

Measured: binding result

B1
no binding: [1] | [2] | [3] | [4] | [5] | [6] | [7]

B2
no binding: [8]

B3
no binding: [8]
